Measured values published in article doi:10.1101/2024.08.06.606614 (bioRxiv, 2024).

B1: SPAG16 (natural protein)
chain: MAAPSGVPPLRVLEELGIGLSPTGEVTEAVTSEGAYYLEQVTITETSEDECEYEEIPDDNFSIPEGEEDLEKAIHIIGEQARDIHILEQQTILPARNVMQEAIEDFLCNFLIKMGMTRTLDCFQAEWYELIQKKGSDFKGLGNVPDVYSQVMLLETENKNLKKELKHFKQAAEKAKEDLLRTQKERDFHRMHHKRIVQEKNKLIADLKGLKLHYASYEPTIRVLHEKHHALLKEKMLTSLERDRAVGKISGLQATLKNIDMGHIQVPVIKGSYESASITRESGDRAGHSCEKENSSEGPTQKSLREAREEVGYKSKLKNEKKDSEFPVDMQPDPNVTSCTENVSAAKFDYKLNNIFRLHELPVSCIVMHPCRDYLISCSEDRLWKMVGLPQGNVLLTGSGHTDWLSGCCFHPSGSKLATSSGDSTIKLWDLNKGECTLTLEGHNHAVWSCTWHSCGDFVASASLDMTSKIWDVNSERCRYTLYGHTDSVNSIEFFPFSNILLTASADKTLSVWDARTGKCEQSLYGHMHSVNDATFTPRGHIIASCDARGVTKLWDFRKLIPIVSIDVGPSSGNEVNFDQSGRVLAQASANGIIHLLDLKSGQIHKLVGHESEVHSVVFSHLGENLYSGGSDGTIRLWI
B2: CFAP70 (natural protein)
chain: MDQTSSTTKIVHITVTNGYDLKGFKGDTPVTFVRAEFNQTVLGDSSKVTVSPEGTAKYNFTSNIDLSPDGGGALDDLAHKPLFLTVTEVLPKEKKQKDEKTLILGQAVVDLLPLLEGEESFETTVPLHPVPGSPLETPLPGSKQCSLDVKVFVAEPLLTPAQVSASNLLKVTLEAAYSVPESFIPVGPQQNYMVGLQVPSVGEKDYTMIFKNGNLKLGGEKEPVPRPKKWPIANILAPGASNIPDEFIVGGPYEEEEGELNHPEDREFRNQAECTKKRIVWDLESRCFLHPFAVASFQKRIADCRLWPVEITRVPLVVMPKAKPGKLEKIDDENQLSFHGVAYINMVPLLYPGVKKIRGAFHVYPYLDGTVFEKTKCLFSLFRDTGHHLVQNNKAGGLNSPLSKPLSKNLKEEKPGKDKDTEGRPRLGELQAPSIKSQSSDTPLESEAPLSHNLEGQQYIEAGTYIVLEIQLEKALVPKRMPEELARRVKEMIPPRPPLTRRTGGAQKAVSDYHTQIKSISRAILNEYYRMFGKQGPKLESDIDNETMEERKCQLNYELNCSGKYFAFKEQLKHAVVKIVREKYLKTTAFESQEELQTFISELYVFLVDQMHVALNQAVPDDVPSSTSTIQTSSEQLRLFAFEAEVNEKFEIAAMYYEERLVREPQNLENWLDYGAFCLLTEDNIKAQECFRKALSLNESHVDSLLLCGVLAILLENYEQAEIFFEDATCLEPTNVIAWTLLGLFYEIQNNDIRMEMAFHEAFKQLQARTLQTKLKSTVTIENMEEGVKVEPSFGPWGVVQESTTAIKTEGLSGMRPQSSHQLSPHTNMELHPQPQGPNTALSSLDEFLEESPKAQSESQEPMATGQPLEPSLVQRSSNALLKELTSKKDISKCQDSSAFSPPTQHVIAQPPVTIFMETIRFLMKVNAVQFVHRVLAHELLCPQGGPSCEYYLVLAQTHLLKKDFAKTEEYLQQAAQMDYLNPNVWGVKGHLYFLSGNHAEAKECYERTISFVVDASEMHFIFLRLGHIYLEEKEYENAKRTYMHACKRSPSCLTWLGLGIACYRLEELTEAEDALSEANALNNCNAEVWAYLALVCLKVGRQLEAEQAYKYTIKLKLKDQALLEEIHTVQEMVGFGNPSF
B3: GOT1L1 (putative aspartate aminotransferase) (natural protein)
chain: MTSLSVFRDVPTAQKLEGSLLKIYRQDGYPSKLFLAYKVCMTEEGHPWVSLVVHKTRLQIAEDPSLDYEYLPLVGLKSFIQSSLELLFGKHSEAIAEKRVGGVHIVGESGAFQLGAQFLKTWRKNVKIVCIVSCQKEQCGLIFQDMGFIVYEYSIWNASDLCSDPSMFVEVLQHIPVGSILVIGNITDCKFTQNQWTKLMSIIKSKQIFPFFDIPCQGLSTGDLEEDTKILQYFVSLGLEFFCSQSLSKNFGIYDEGVGILVVAALSNQHLLCVLSQLMDYVQALWGNPPATGARIITSILCNPALFGEWKQSLKGVVENMMLIKEKVKEKLRLLGTPGSWDHITRQSGTHGYLGLTYQQVEFLVKKKHIYLPKTSRINFTCINARNIDYITQSIHEAVMLTEG
B4: germ cell-less 1 (GMCL1) (natural protein)
chain: MGALSSRVLRPAGRTEQPEPTPGAGGAARRSDAGEDAGHSFCYCPGGRKRKRSSGTFCYCHPDSETDDDEDEGDEQQRLLNTPRRKKLKSTSKYIYQTLFLNGENSDIKICALGEEWSLHKIYLCQSGYFSSMFSGSWKESSMNIIELEIPDQNIDIEALQVAFGSLYRDDVLIKPSRVVAILAAACMLQLDGLIQQCGETMKETISVRTVCGYYTSAGTYGLDSVKKKCLEWLLNNLMTHQSVELFKELSINVMKQLIGSSNLFVMQVEMDVYTALKKWMFLQLVPSWNGSLKQLLTETDVWFSKWKKDFEGTTFLETEQGKPFAPVFRHLRLQYIISDLASARIIEQDSLVPSEWLAAVYKQQWLAMLRAEQDSEVGPQEINKEELEGNSMRCGRKLAKDGEYCWRWTGFNFGFDLLVTYTNRYIIFKRNTLNQPCSGSVSLQPRRSIAFRLRLASFDSSGKLICSRATGYQILTLEKDQEQVVMNLDSRLLIFPLYICCNFLYISPEKRTESNRHPENPGH

Experiments:
[1] = molecular target: HYDIN (mouse (endogenous in mouse sperm)) (UniProt Q80W93); test: cryo-EM structure
cryo-EM structure = molecular target: the molecule itself; test: cryo-EM structure

Molecule | stoichiometry N [1] | stoichiometry N (cryo-EM structure)
HYDIN, Q80W93 1-5154 | 3 | 
B1 |  | 2
B2 |  | 2
B3 |  | 2
B4 |  | 2
